From patent US20260184783A1 (Merck Sharp & Dohme, published 2026) come the findings set out here.

Assay [1] has as its target T1, human LAG-3-hFc (human, UniProt P18627 23-450).
T1 construct: also called human LAG3-Fc; Human LAG-3-Fc; not shown: human Fc
T1 sequence: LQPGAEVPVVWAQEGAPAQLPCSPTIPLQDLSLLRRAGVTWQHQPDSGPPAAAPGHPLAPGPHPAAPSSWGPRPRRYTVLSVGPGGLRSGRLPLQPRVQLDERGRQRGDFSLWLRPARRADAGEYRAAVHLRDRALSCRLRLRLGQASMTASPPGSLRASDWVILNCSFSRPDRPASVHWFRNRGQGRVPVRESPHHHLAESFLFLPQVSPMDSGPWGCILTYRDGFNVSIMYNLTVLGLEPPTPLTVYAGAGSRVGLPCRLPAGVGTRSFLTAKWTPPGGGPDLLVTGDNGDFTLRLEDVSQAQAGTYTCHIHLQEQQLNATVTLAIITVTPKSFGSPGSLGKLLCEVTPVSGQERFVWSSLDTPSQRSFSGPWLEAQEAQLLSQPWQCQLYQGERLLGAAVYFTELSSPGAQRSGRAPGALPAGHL
Briefly: SPR, Biacore T100; human LAG3-hFc captured on anti-human IgG(Fc), Nanobody as analyte; Langmuir with mass transport. The procedure:
Kinetic analysis of Nanobodies was performed by surface plasmon resonance (SPR) technology, using the Biacore T100 instrument (GE Healthcare). HBS-EP+(0.01 M HEPES pH 7.4, 0.15 M NaCl, 3 mM EDTA, 0.05% v/v Surfactant P20) was used as running buffer and the experiments were performed at 25° C. Two flow channels of a Series S Sensor Chip CM5 were activated with EDC (200 mM)/NHS (50 mM) and anti-Human IgG(Fc) (GE Healthcare, BR100839) was injected at 5 μg/ml in the supplied immobilization buffer (10 mM sodium acetate pH5.0) to render immobilization levels of approximately 2000 R U. After immobilization, surfaces were deactivated with 1M ethanolamine/HCl (pH 8.5). The flow rate during the sensor preparation was set on 5 μL/min.
Sensorgram processing and data analysis was performed with Biacore T100 Evaluation Software Version 2.0.4 (GE Healthcare). […] Processed curves were evaluated via fitting with the model ‘Langmuir with Mass Transport’.

For assay [2], the target named is T2, human LAG-3 expressed on cells (human, UniProt P18627 23-525).
T2 construct: the transgene used on the cells is not tied to it by number; also called hLAG-3; 3A9.hLAG-3
T2 sequence: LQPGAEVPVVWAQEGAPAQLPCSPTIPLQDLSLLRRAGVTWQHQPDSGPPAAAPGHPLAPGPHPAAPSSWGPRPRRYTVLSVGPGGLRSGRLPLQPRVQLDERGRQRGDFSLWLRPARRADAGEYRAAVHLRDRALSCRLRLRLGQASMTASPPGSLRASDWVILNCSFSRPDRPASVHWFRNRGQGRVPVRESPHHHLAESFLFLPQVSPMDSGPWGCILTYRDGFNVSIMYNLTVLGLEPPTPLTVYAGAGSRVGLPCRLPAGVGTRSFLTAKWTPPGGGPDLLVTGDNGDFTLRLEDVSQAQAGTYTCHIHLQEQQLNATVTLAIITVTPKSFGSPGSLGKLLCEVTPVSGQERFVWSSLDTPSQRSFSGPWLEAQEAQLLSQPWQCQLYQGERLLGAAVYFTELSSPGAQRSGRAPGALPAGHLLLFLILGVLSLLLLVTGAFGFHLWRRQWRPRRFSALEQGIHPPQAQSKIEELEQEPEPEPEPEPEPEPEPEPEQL
Briefly: flow cytometry on 3A9 cells expressing human LAG-3; anti-FLAG + PE goat anti-mouse. The procedure:
(§1) Binding to cell-expressed human LAG-3 was evaluated on human LAG-3 over-expressing 3A9 cells. A Nanobody dilution series was prepared in assay buffer: PBS/10% FBS/0.05% sodium azide. 1×10⁵ cells/well were transferred to a 96-well V-bottom plate and resuspended in 100 μL Nanobody dilution. After 30 minutes incubation at 4° C., the cells were washed with 100 μL/well assay buffer and resuspended in 100 μL/well of 1 μg/ml anti-FLAG (Sigma, F1804). […] Samples were incubated for 30 minutes at 4° C., washed, and resuspended in 100 μL/well of 5 nM TOPRO3 (LifeTechnologies, T3606) solution before analysis on FACS CANTO II (BD).
A general note: A flow cytometer gives signals particle by particle.

In assay [3] the target is T1, human LAG-3-hFc. Briefly: flow cytometry competition: blockade of 40 nM human LAG-3-hFc binding to MHC class II on Daudi cells; PE goat anti-human IgG. On the procedure: A Nanobody dilution series was prepared in assay buffer: HBSS/2% FBS. Prior to the experiment, Fc receptors on the Daudi cells were blocked with human Fc block (BD Pharmingen, 564220) and 5 μg/mL goat IgG (Jackson ImmunoResearch, 005-000-003) for 30 minutes at 4° C. […] 1×10⁵ cells/well were seeded in V-bottom 96-well plates and resuspended in 100 μL/well of the Nanobody/ligand dilution. After 30 minutes incubation at 4° C., the cells were washed and resuspended in 100 μL/well PE-labeled Goat anti-human IgG (Southern Biotech, 2043-09). Samples were incubated for 15 minutes at 4° C., washed, and resuspended in 100 μL/well of 5 nM TOPRO3 (LifeTechnologies, T3606) solution before analysis on FACS CANTO II (BD).

The target of assay [4] is T3, human PD-1 expressed on cells (human, UniProt Q15116 25-288).
T3 construct: the transgene used on the cells is not tied to it by number; also called hPD-1; CHO.hPD-1
Briefly: flow cytometry on CHO-K1 cells expressing human PD-1; anti-FLAG + PE goat anti-mouse. The procedure: as §1, with “PD-1” for “LAG-3”, “CHO” for “3A9”, “F1804) or anti-HIS (AbD Serotec, MCA 1396).” for “F1804).”

Assay [5] concerns the target T3, human PD-1 expressed on cells. Briefly: cell-based or functional assay.
Assay [6] shares this target. Briefly: flow cytometry competition: blockade of human PD-L2-hFc binding to CHO-K1 cells expressing human PD-1; PE goat anti-human IgG. The procedure:
(§2) Ligand competition assays were performed on human PD-1 over-expressing CHO cells. A Nanobody dilution series was prepared in assay buffer: PBS/10% FBS/0.05% sodium azide. […] 2×10⁴ cells/well were seeded in V-bottom 96-well plates and resuspended in 200 μL/well of the Nanobody/ligand dilution. After 90 minutes incubation at 4° C., the cells were washed with 100 μL/well assay buffer and resuspended in 100 μL/well PE-labeled Goat anti-human IgG (Southern Biotech, 2043-09). Samples were incubated for 30 minutes at 4° C., washed, and resuspended in 100 μL/well of 5 nM TOPRO3 (LifeTechnologies, T3606) solution before analysis on FACS CANTO II (BD).

Assay [7] has the same target. Briefly: flow cytometry competition: blockade of human PD-L1-hFc binding to CHO-K1 cells expressing human PD-1; PE goat anti-human IgG. On the procedure:
as §2

Assay [8] has as its target T4, human PD-1-hFc (human, UniProt Q15116 25-170).
T4 construct: also called hPD-1-hFc; hPD1-hFc; not shown: human Fc
Briefly: SPR, Biacore T100; hPD-1-hFc immobilised on CM5 (303 RU), Nanobody as analyte; Langmuir with mass transport. On the procedure: (§3) Kinetic analysis of the Nanobodies was performed by SPR technology, using the Biacore T100 instrument (GE Healthcare). HBS-EP+(0.01 M HEPES pH 7.4, 0.15 M NaCl, 3 mM EDTA, 0.05% v/v Surfactant P20) was used as running buffer and the experiments were performed at 25° C. Two flow channels of a Series S Sensor Chip CM5 were activated with EDC (200 mM)/NHS (50 mM). hPD-1-hFc was injected (4 times) at 5 μg/ml in suitable immobilization buffer (10 mM sodium acetate pH4.5) over one surface to render immobilization levels of 303 RU. After immobilization, surfaces were deactivated with 1M ethanolamine/HCl (pH 8.5). The flow rate during the sensor preparation was set on 5 μl/min.
(§4) After each cycle (i.e. before a new Nanobody injection step) the hPD1-hFc surfaces were regenerated with a 1 minute injection 10 mM Glycine pH1.5 at 45 μl/min. Sensorgram processing and data analysis was performed with Biacore T100 Evaluation Software Version 2.0.4 (GE Healthcare). Sensorgrams showing Nanobody binding were obtained after double referencing by subtracting 1) non-specific binding to reference flow channel and 2) HBS-EP+injection. Processed curves were evaluated via fitting with the model ‘Langmuir with Mass Transport’.
In general terms: Surface plasmon resonance follows binding to a sensor surface in real time, without labels.

Assay [9] concerns the target T4, human PD-1-hFc. Briefly: SPR, Biacore T100; hPD-1-hFc immobilised on CM5, Nanobody as analyte; Langmuir with mass transport. The procedure:
as §3, §4

Changes are numbered by the printed parent chain. Numbers in names are those of the source.

T4 sequence (Q15116 25-170 limits assumed): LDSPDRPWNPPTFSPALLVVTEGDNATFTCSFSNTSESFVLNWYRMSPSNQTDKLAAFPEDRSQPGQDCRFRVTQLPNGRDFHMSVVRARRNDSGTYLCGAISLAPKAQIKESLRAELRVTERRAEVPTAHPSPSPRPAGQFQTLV
T3 sequence (Q15116 25-288 limits assumed): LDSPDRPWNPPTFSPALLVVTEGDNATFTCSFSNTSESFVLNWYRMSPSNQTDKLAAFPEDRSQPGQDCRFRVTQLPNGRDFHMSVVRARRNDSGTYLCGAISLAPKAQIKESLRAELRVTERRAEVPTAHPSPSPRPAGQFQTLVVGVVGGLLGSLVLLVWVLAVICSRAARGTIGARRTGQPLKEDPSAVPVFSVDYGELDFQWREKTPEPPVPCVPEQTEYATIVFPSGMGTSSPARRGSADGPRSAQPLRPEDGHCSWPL

B1: F023700842 (F0237611B09(L11V, A14P, R41P, N43K, A62S, A74S, K83R, V89L)-FLAG3-HIS6) (VHH)
VHH: EVQLVESGGGVVQPGGSLRLSCAASGRTFSDYVMGWFRQAPGKEREFVAAISESGGRTHYADSVKGRFTISRDNSKNTLYLQMNSLRPEDTALYYCATTLLWWTSEYAPIKANDYDYWGQGTLVTVSS
notes: also called F023700842-FLAG3-HIS6
Regarding B1, in assay [1], the Kd – broadly, the equilibrium constant for the complex coming apart – is 21 nM; the koff (as a rule, the first-order rate constant of dissociation) stood at 0.019 s⁻¹; the kon (commonly the rate constant with which the complex forms) amounted to 920000 M⁻¹ s⁻¹. For the same molecule, the EC50 (read off the curve) – broadly, the concentration at which the effect is half-maximal – in assay [2] was ~2 nM. For the same molecule, the “IC50 (read off the curve)” value in [3] was ~30 nM.

B2: F0237611B09-FLAG3-HIS6 (VHH)
VHH: B1 VHH with V11L, P14A, P41R, K43N, S63A, S75A, R87K, L93V
notes: original monovalent anti-human LAG-3 Nanobody; also called F0237611B09-FLAG-His6
As for B2, the half-maximal effective concentration (EC50 (read off the curve)) in assay [2] is ~2 nM. The “IC50 (read off the curve)” value in assay [3] was ~20 nM.

B3: F023700706 (1PD102C12 (L11V, A14P, A74S, K83R, I89L)-FLAG3-HIS6) (VHH)
VHH: EVQLVESGGGVVQPGGSLRLSCAASGSIASIHAMGWFRQAPGKEREFVAVITWSGGITYYADSVKGRFTISRDNSKNTVYLQMNSLRPEDTALYYCAGDKHQSSWYDYWGQGTLVTVSS
notes: also called SO 1PD102C12 monomer
For B3, the concentration giving a half-maximal response (EC50 (read off the curve)) in assay [4] is ~0.9 nM. In addition, the “EC50 (read off the curve), IL-2 promoter luciferase RLU” value in [5] is ~0.9 nM. Further, the “IC50 (read off the curve)” value in assay [6] and in assay [7] was ~0.6 nM throughout.

B4: F023701190 (1PD102C12 (E1D, L11V, A14P, W52aV, A74S, K83R, I89L, W100aF)-HIS6) (VHH)
VHH: B3 VHH with E1D, W53V, W105F
notes: monovalent anti-human PD-1 Nanobody variant; also called Enhanced SO 1PD102C12 monomer; not shown: C-terminal HIS6 tag
As to B4, the “IC50 (read off the curve)” value in assay [6] was ~0.9 nM; in [7] it was ~1 nM.

B5: F023701192 (1PD102C12 (E1D, L11V, A14P, W52aV, N73Q, A74S, K83R, I89L, W100aF)-HIS6) (VHH)
VHH: B3 VHH with E1D, W53V, N74Q, W105F
notes: monovalent anti-human PD-1 Nanobody variant; not shown: C-terminal HIS6 tag
For B5, the “IC50 (read off the curve)” value in [6] is ~0.9 nM. In assay [8], this molecule gave a Kd of 1.3 nM, a koff of 0.0032 s⁻¹ and a kon of 2.5e+06 M⁻¹ s⁻¹. The “IC50 (read off the curve)” value in [7] was ~1 nM. In assay [9], this molecule returned a Kd of 1.3 nM, a koff of 0.0032 s⁻¹ and a kon of 2.5e+06 M⁻¹ s⁻¹.

B6: F023700929 (1PD102C12 (L11V, A14P, A74S, K83R, I89L)-HIS6) (VHH)
VHH: B3 VHH
notes: not shown: C-terminal HIS6 tag
As to B6, in assay [6], the “IC50 (read off the curve)” value was ~1 nM. In assay [8], this molecule yielded a Kd of 0.29 nM, an off-rate (koff) of 0.00059 s⁻¹ and a kon of 2e+06 M⁻¹ s⁻¹. The “IC50 (read off the curve)” value in assay [7] is ~1 nM. In [9], this molecule displayed a Kd of 0.29 nM, a koff of 0.00059 s⁻¹ and a kon of 2e+06 M⁻¹ s⁻¹.

B7: F023701193 (1PD102C12 (E1D, L11V, A14P, W52aV, N73P, A74S, K83R, I89L, W100aF)-HIS6) (VHH)
VHH: B3 VHH with E1D, W53V, N74P, W105F
notes: as for B5
For the molecule B7, the “IC50 (read off the curve)” value was ~0.9 nM in [6] and ~1 nM in [7]. Also, the Kd in [8] and in [9] was 2.4 nM throughout. For the same molecule, the off-rate (koff) in assay [8] and in assay [9] was 0.0075 s⁻¹ in each case. Moreover, the kon in assay [8] and in [9] was 3.2e+06 M⁻¹ s⁻¹ each time.

B8: F023700275 (1PD102C12(A14P, A74S, K83R)-FLAG3-HIS6) (VHH)
VHH: B3 VHH with V11L, L93I
notes: monovalent anti-human PD-1 Nanobody, parent of F023700706
For B8, the “EC50 (read off the curve)” value in [4] was ~0.9 nM. Besides, the “IC50 (read off the curve)” value in assay [6] and in assay [7] was ~0.3 nM throughout.
